Laboratory results published in PMC10404701.

Target: TTLL7-treated microtubules (mouse brain tubulin) (mouse (endogenous in brain)) (UniProt P68369)
Assay: TIRF microscopy, single-molecule imaging (kymographs, dwell time); MTs immobilised on a cover glass by a tubulin antibody; Kif5c-GFP in imaging buffer (BRB80, 1 mM ATP, 20 μM taxol); 35 °C; dwell times from kymographs, events shorter than 0.2 s left out, single exponential fit

Chain of UniProt P68369 (P68369 whole entry, chain 1 of 2): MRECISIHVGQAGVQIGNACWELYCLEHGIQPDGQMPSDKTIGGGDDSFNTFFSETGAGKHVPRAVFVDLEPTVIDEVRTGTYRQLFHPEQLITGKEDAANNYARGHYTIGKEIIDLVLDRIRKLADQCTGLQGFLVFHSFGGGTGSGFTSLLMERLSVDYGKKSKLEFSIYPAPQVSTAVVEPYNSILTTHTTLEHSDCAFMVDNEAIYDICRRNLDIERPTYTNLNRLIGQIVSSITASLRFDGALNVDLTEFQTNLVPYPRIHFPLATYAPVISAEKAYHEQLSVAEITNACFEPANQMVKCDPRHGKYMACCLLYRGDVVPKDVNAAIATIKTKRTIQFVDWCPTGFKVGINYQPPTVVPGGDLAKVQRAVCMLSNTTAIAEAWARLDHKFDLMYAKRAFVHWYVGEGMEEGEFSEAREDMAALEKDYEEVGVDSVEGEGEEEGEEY
Chain of UniProt P68369 (Q7TMM9 whole entry, chain 2 of 2, further chain): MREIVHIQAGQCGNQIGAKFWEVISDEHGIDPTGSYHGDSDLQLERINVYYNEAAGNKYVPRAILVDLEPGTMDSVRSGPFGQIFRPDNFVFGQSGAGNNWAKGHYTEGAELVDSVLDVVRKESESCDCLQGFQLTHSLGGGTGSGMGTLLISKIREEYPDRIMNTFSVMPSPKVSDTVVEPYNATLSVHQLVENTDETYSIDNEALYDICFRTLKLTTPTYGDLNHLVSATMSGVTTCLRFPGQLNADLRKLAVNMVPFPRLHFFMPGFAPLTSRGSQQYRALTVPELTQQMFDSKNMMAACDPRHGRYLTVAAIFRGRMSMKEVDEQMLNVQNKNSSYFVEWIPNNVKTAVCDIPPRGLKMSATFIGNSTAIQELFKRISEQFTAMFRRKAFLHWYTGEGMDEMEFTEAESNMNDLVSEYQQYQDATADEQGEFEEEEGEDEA

dwell time: 0.5 s
Substance: Kif5c-GFP (amino acids: 1–430) (from UniProt P56536 1-430) (domain or fragment)
